The labels stand for the following.
B1: Azoarcus group I ribozyme (parent)
chain: GUGCCUUGCGCCGGGAAACCACGCAAGGGAUGGUGUCAAAUUCGGCGAAACCUAAGCGCCCGCCCGGGCGUAUGGCAACGCCGAGCCAAGCUUCGGCGCCUGCGCCGAUGAAGGUGUAGAGACUAGACGGCACCCACCUAAGGCAAACGCUAUGGUGAAGGCAUAGUCCAGGGAGUGGCGAAAGUCACACAAACCGG

Variants of B1 are the subject of this data set. As to the kind of experiment: reverse-splicing fitness (ratio to wild type); higher = more active; in vitro selection; Mg2+ level not given. An outline of the steps:
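An in vitro group I ribozyme library with randomized positions was T7-transcribed and gel-purified. In triplicate, 10 pmol RNA in EPPS pH 7.5 was reacted with 50 pmoles of a 30-nt RNA substrate for 1 h at 37 °C across several added MgCl2 levels (1–48 mM), then stopped with EDTA. Products were reverse transcribed from a substrate-complementary primer, PCR-amplified and sequenced (HiSeq 4000). Fitness is a variant's read proportion after selection over that before, normalised to wild type.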
Regarding GUGCCUUGCGCCGGGAAACCACGCAAGGGAUGGUGUCAAAUUCGGCGAAACCUAAGCGCCCGCCCGGGCGUAUGGCAACGCAGAGCCAAGCUUCGGCGCCUGCGCCGAUGGAGGUGUAGUGACUAGACGGCACCCACCUAAGGCCAACGAUAUGGUGAAGGCAUAGUCUAGGGAGCGGCGAAAGUCACACAAACCGG [C82A A111G A120U A145C C150A C169U U176C], the reverse-splicing fitness is 0.00198.
The value for GUGCCUUGCGCCGGGAAACCACGCAAGGGAUGGUGUCAAAUUCGGCGAAACCUAAGCGCCCGCCCGGGCGUAUGGCAACGCAGAGCCAAGCUUCGGCGCCUGCGCCGAUGGAGGUGUAGUGACUAGACGGCACCCACCUAAGGCCAACGCUAUGGUGAAGGCAUAGUCCAGGGAGUGGCGAAAGUCACACAAACCGG [C82A A111G A120U A145C] was 0.027; that for GUGCCUUGCGCCGGGAAACCACGCAAGGGAUGGUGUCAAAUUCGGCGAAACCUAAGCGCCCGCCCGGGCGUAUGGCAACGCAGAGCCAAGCUUCGGCGCCUGCGCCGAUGGAGGUGUAGUGACUAGACGGCACCCACCUAAGGCCAACGGUAUGGUGAAGGCAUAGUCAAGGGAGUGGCGAAAGUCACACAAACCGG [C82A A111G A120U A145C C150G C169A] was 0.0025.
Take GUGCCUUGCGCCGGGAAACCACGCAAGGGAUGGUGUCAAAUUCGGCGAAACCUAAGCGCCCGCCCGGGCGUAUGGCAACGCAGAGCCAAGCUUCGGCGCCUGCGCCGAUGGAGGUGUAGGGACUAGACGGCACCCACCUAAGGCAAACGCUAUGGUGAAGGCAUAGUCUAGGGAGCGGCGAAAGUCACACAAACCGG [C82A A111G A120G C169U U176C]: the reverse-splicing fitness is 0.0183.
The value for GUGCCUUGCGCCGGGAAACCACGCAAGGGAUGGUGUCAAAUUCGGCGAAACCUAAGCGCCCGCCCGGGCGUAUGGCAACGCAGAGCCAAGCUUCGGCGCCUGCGCCGAUGGAGGUGUAGGGACUAGACGGCACCCACCUAAGGCAAACGCUAUGGUGAAGGCAUAGUCUAGGGAGAGGCGAAAGUCACACAAACCGG [C82A A111G A120G C169U U176A] was 0.0208.
The value for GUGCCUUGCGCCGGGAAACCACGCAAGGGAUGGUGUCAAAUUCGGCGAAACCUAAGCGCCCGCCCGGGCGUAUGGCAACGCAGAGCCAAGCUUCGGCGCCUGCGCCGAUGGAGGUGUAGGGACUAGACGGCACCCACCUAAGGCAAACGCUAUGGUGAAGGCAUAGUCUAGGGAGGGGCGAAAGUCACACAAACCGG [C82A A111G A120G C169U U176G] was 0.00531; that for GUGCCUUGCGCCGGGAAACCACGCAAGGGAUGGUGUCAAAUUCGGCGAAACCUAAGCGCCCGCCCGGGCGUAUGGCAACGCAGAGCCAAGCUUCGGCGCCUGCGCCGAUGGAGGUGUAGUGACUAGACGGCACCCACCUAAGGCCAACGAUAUGGUGAAGGCAUAGUCGAGGGAGGGGCGAAAGUCACACAAACCGG [C82A A111G A120U A145C C150A C169G U176G] was 0.00149.
The value for GUGCCUUGCGCCGGGAAACCACGCAAGGGAUGGUGUCAAAUUCGGCGAAACCUAAGCGCCCGCCCGGGCGUAUGGCAACGCAGAGCCAAGCUUCGGCGCCUGCGCCGAUGGAGGUGUAGUGACUAGACGGCACCCACCUAAGGCCAACGAUAUGGUGAAGGCAUAGUCGAGGGAGCGGCGAAAGUCACACAAACCGG [C82A A111G A120U A145C C150A C169G U176C] was 0.00235; that for GUGCCUUGCGCCGGGAAACCACGCAAGGGAUGGUGUCAAAUUCGGCGAAACCUAAGCGCCCGCCCGGGCGUAUGGCAACGCAGAGCCAAGCUUCGGCGCCUGCGCCGAUGGAGGUGUAGUGACUAGACGGCACCCACCUAAGGCCAACGAUAUGGUGAAGGCAUAGUCGAGGGAGAGGCGAAAGUCACACAAACCGG [C82A A111G A120U A145C C150A C169G U176A] was 0.00315; that for GUGCCUUGCGCCGGGAAACCACGCAAGGGAUGGUGUCAAAUUCGGCGAAACCUAAGCGCCCGCCCGGGCGUAUGGCAACGCAGAGCCAAGCUUCGGCGCCUGCGCCGAUGGAGGUGUAGUGACUAGACGGCACCCACCUAAGGCCAACGGUAUGGUGAAGGCAUAGUCAAGGGAGAGGCGAAAGUCACACAAACCGG [C82A A111G A120U A145C C150G C169A U176A] was 0.00214.
GUGCCUUGCGCCGGGAAACCACGCAAGGGAUGGUGUCAAAUUCGGCGAAACCUAAGCGCCCGCCCGGGCGUAUGGCAACGCAGAGCCAAGCUUCGGCGCCUGCGCCGAUGGAGGUGUAGUGACUAGACGGCACCCACCUAAGGCCAACGGUAUGGUGAAGGCAUAGUCAAGGGAGCGGCGAAAGUCACACAAACCGG [C82A A111G A120U A145C C150G C169A U176C]: the reverse-splicing fitness came to 0.00205.
To GUGCCUUGCGCCGGGAAACCACGCAAGGGAUGGUGUCAAAUUCGGCGAAACCUAAGCGCCCGCCCGGGCGUAUGGCAACGCAGAGCCAAGCUUCGGCGCCUGCGCCGAUGGAGGUGUAGUGACUAGACGGCACCCACCUAAGGCCAACGGUAUGGUGAAGGCAUAGUCAAGGGAGGGGCGAAAGUCACACAAACCGG [C82A A111G A120U A145C C150G C169A U176G] belongs 0.00179.
Consider GUGCCUUGCGCCGGGAAACCACGCAAGGGAUGGUGUCAAAUUCGGCGAAACCUAAGCGCCCGCCCGGGCGUAUGGCAACGCAGAGCCAAGCUUCGGCGCCUGCGCCGAUGGAGGUGUAGUGACUAGACGGCACCCACCUAAGGCCAACGAUAUGGUGAAGGCAUAGUCAAGGGAGUGGCGAAAGUCACACAAACCGG [C82A A111G A120U A145C C150A C169A], for which the reverse-splicing fitness is 0.00211.
The value for GUGCCUUGCGCCGGGAAACCACGCAAGGGAUGGUGUCAAAUUCGGCGAAACCUAAGCGCCCGCCCGGGCGUAUGGCAACGCAGAGCCAAGCUUCGGCGCCUGCGCCGAUGGAGGUGUAGUGACUAGACGGCACCCACCUAAGGCCAACGAUAUGGUGAAGGCAUAGUCUAGGGAGUGGCGAAAGUCACACAAACCGG [C82A A111G A120U A145C C150A C169U] was 0.00264; that for GUGCCUUGCGCCGGGAAACCACGCAAGGGAUGGUGUCAAAUUCGGCGAAACCUAAGCGCCCGCCCGGGCGUAUGGCAACGCAGAGCCAAGCUUCGGCGCCUGCGCCGAUGGAGGUGUAGUGACUAGACGGCACCCACCUAAGGCCAACGAUAUGGUGAAGGCAUAGUCGAGGGAGUGGCGAAAGUCACACAAACCGG [C82A A111G A120U A145C C150A C169G] was 0.00279.

The values are drawn from the RNAGym collection of RNA variant scans (doi:10.1093/molbev/msab373).
